According to patent publication US20230272064A1 (ACROIMMUNE BIOTECH, published 2023):
Where “and” joins values, the source holds several entries; their conditions need not be identical. Equal entries are not always repeated. Blank lines part the entries; values can stand above or below the binder they belong to.

How the values were obtained:
[1] = target: T1, recombinant human TIGIT extracellular membrane protein with a C-terminal histidine tag (human, UniProt Q495A1 22-141); assay: BLI (Fortebio-OCTET RED96), mAb captured on FAB2G sensor, TIGIT-His monomer as analyte, global fit, monovalent binding
T1 construct: extracellular domain; Bought protein; two different product numbers are printed for it; also called TIGIT-His; TIGIT-his
T1 sequence (looked up): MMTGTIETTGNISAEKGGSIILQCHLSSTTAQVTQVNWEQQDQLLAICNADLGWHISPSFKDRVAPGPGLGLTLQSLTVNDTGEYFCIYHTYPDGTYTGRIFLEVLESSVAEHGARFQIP

[2] = target: T1, recombinant human TIGIT extracellular …; assay: competitive ELISA, TIGIT-His coated, competitor biotin-CD155-Fc; average of samples #2 and #4
[3] = target: T2, PD-1 Fc fusion protein (Homo sapiens (Human), UniProt Q15116 25-170); assay: ELISA, antigen coated at 2 µg/mL
[4] = target: T3, CD28 Fc fusion protein (Homo sapiens (Human), UniProt P10747 19-152); assay: ELISA, antigen coated at 2 µg/mL
[5] = target: T4, B7-1 Fc fusion protein (Homo sapiens (Human), UniProt P33681 35-242); assay: ELISA, antigen coated at 2 µg/mL
T4 sequence: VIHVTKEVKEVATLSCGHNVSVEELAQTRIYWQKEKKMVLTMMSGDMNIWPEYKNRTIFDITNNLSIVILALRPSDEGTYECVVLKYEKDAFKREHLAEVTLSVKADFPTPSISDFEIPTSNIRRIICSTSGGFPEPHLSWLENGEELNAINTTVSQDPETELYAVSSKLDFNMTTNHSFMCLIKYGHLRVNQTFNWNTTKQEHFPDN

[6] = target: T5, BTLA Fc fusion protein (Homo sapiens (Human), UniProt Q7Z6A9 31-157); assay: ELISA, antigen coated at 2 µg/mL
T5 sequence: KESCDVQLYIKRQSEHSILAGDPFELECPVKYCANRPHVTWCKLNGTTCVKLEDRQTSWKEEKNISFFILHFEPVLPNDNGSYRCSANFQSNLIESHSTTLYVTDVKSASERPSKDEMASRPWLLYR

[7] = target: T1, recombinant human TIGIT extracellular …; assay: competitive ELISA, TIGIT-His coated, competitor biotin-CD155-Fc
[8] = target: Sirpa Fc fusion protein; assay: ELISA, antigen coated at 2 µg/mL, mAb at 1 µg/mL
[9] = target: PV1- (coated antigen of Table 2); assay: ELISA, antigen coated at 2 µg/mL, mAb at 1 µg/mL
[10] = target: T2, PD-1 Fc fusion protein; assay: ELISA, antigen coated at 2 µg/mL, mAb at 1 µg/mL
[11] = target: T3, CD28 Fc fusion protein; assay: ELISA, antigen coated at 2 µg/mL, mAb at 1 µg/mL
[12] = target: T4, B7-1 Fc fusion protein; assay: ELISA, antigen coated at 2 µg/mL, mAb at 1 µg/mL
[13] = target: PD1H (PD2) Fc fusion protein; assay: ELISA, antigen coated at 2 µg/mL, mAb at 1 µg/mL
[14] = target: T5, BTLA Fc fusion protein; assay: ELISA, antigen coated at 2 µg/mL, mAb at 1 µg/mL
[15] = target: T1, recombinant human TIGIT extracellular …; assay: ELISA, antigen coated at 2 µg/mL, mAb at 1 µg/mL
[16] = target: T6, PD-L2 Fc fusion protein; assay: ELISA, antigen coated at 2 µg/mL, mAb at 1 µg/mL
T6 sequence (Q9BQ51 whole entry, species assumed, looked up): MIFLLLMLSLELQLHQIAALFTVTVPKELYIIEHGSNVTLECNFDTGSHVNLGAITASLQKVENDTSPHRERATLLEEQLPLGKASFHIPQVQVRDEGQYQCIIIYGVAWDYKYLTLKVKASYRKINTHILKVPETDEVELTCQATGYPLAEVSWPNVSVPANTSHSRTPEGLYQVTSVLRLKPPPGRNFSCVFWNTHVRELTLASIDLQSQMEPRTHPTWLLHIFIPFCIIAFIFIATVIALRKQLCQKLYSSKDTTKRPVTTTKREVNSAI

[17] = target: CTLA4 Fc fusion protein; assay: ELISA, antigen coated at 2 µg/mL, mAb at 1 µg/mL
[18] = target: CD3 Fc fusion protein; assay: ELISA, antigen coated at 2 µg/mL, mAb at 1 µg/mL
[19] = target: PD-L1 Fc fusion protein; assay: ELISA, antigen coated at 2 µg/mL, mAb at 1 µg/mL
[20] = target: T7, mouse TIGIT on C57/B6 wild-type mouse lymphocytes (mouse, UniProt P86176 29-249); assay: flow cytometry on peripheral blood lymphocytes of a wild-type C57 mouse, 33D2 hybridoma supernatant, FITC rabbit anti-mouse IgG, PE anti-mouse CD3e
T7 construct: whole, on cells
T7 sequence (looked up): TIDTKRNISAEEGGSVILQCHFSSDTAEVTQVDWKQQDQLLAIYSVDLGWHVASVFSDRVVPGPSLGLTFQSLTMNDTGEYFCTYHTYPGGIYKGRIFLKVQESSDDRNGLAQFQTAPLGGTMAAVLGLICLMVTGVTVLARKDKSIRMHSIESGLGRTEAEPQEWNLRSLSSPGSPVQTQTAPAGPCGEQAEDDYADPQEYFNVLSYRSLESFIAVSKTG

T3 sequence (P10747 19-152 limits assumed): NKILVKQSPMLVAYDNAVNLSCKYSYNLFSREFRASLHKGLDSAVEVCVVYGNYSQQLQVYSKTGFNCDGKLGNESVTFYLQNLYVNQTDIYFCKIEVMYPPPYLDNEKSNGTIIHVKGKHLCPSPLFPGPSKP
T2 sequence (Q15116 25-170 limits assumed): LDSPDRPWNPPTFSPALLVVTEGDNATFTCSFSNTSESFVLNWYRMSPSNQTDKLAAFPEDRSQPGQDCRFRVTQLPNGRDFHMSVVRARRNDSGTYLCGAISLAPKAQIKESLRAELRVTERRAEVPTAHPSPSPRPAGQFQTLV
Chain of Sirpa Fc fusion protein (P78324 whole entry, the tested form may be a part): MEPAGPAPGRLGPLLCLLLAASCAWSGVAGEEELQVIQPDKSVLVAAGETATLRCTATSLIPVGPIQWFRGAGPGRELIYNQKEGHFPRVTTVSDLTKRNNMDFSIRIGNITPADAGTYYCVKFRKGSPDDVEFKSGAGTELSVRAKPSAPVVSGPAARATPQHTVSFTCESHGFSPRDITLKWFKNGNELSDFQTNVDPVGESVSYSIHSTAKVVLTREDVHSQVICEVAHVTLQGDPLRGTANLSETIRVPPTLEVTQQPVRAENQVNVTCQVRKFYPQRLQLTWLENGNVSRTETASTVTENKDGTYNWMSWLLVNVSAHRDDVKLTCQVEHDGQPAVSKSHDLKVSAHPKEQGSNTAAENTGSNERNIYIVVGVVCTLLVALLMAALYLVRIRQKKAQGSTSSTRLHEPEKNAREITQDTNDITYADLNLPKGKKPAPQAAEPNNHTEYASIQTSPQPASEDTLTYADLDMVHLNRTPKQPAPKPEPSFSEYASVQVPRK
Chain of CTLA4 Fc fusion protein (P16410 36-161): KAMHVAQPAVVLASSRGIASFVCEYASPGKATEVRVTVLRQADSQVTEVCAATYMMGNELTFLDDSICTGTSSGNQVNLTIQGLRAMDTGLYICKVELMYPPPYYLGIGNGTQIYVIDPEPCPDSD
Chain of PD-L1 Fc fusion protein (Q9NZQ7 whole entry, the tested form may be a part): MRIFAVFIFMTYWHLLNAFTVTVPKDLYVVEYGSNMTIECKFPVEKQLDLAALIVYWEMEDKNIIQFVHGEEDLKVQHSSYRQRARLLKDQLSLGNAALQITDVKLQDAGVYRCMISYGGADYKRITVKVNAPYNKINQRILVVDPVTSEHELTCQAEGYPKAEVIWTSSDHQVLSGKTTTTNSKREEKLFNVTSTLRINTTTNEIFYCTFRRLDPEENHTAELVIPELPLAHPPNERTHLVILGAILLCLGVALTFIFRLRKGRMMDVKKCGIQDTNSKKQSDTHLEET

Kd [1]: 0.843 nM
koff [1]: 0.00023 s⁻¹
kon [1]: 273000 M⁻¹ s⁻¹
B1: humanized antibody h33D2 (antibody, V domains shown)
VH: QVQLVQSGAEVKKPGASVKVSCKASGYSFTGYYMHWVRQAPGQGLEWMGRVNPNNGDTRYNQKFKGRVTMTRDTSISTAYMELSRLRSDDTVVYYCAREGDYDERFAYWGQGTLVTVSA
VL: DIQLTQSPSFLSASVGDRVTITCKASQDVGSTVAWYQQKPGKAPKLLIYWASTRHTGVPSRFSGSGSGTEFTLTISSLQPEDFATYYCQQYTSFPYTFGGGTKLEIK
notes: IgG4-kappa; human IgG4 heavy chain constant region with S228P in the hinge and human kappa light chain constant region; also called humanized 33D2 mAb; h33D2-light chain and h33D2-heave chain

IC50 [2]: 0.13 µg/mL and 0.867 nM
binding result [3]: no binding (tested: 1 µg/mL)
binding result [4]: no binding (tested: 1 µg/mL)
binding result [5]: no binding (tested: 1 µg/mL)
binding result [6]: no binding (tested: 1 µg/mL)
OD at 495 nm [8]: 0.01 OD
OD at 495 nm [9]: 0.05 OD
OD at 495 nm [10]: 0.01 OD
OD at 495 nm [11]: 0.03 OD
OD at 495 nm [12]: 0.03 OD
OD at 495 nm [13]: 0.01 OD
OD at 495 nm [14]: 0.01 OD
OD at 495 nm [15]: 1.01 OD
OD at 495 nm [16]: 0.04 OD
OD at 495 nm [17]: 0.02 OD
OD at 495 nm [18]: 0.01 OD
OD at 495 nm [19]: 0 OD
binding result [20]: no binding
B2: murine anti-human TIGIT monoclonal antibody 33D2 (antibody, V domains shown)
VH: EVQLQQSGPDLVKPGASVKISCKASGYSFTGYYMHWVKQSHGKSLEWIGRVNPNNGDTRYNQKFKGKAILTVDKSSSTAYMELRSLTSEDSAVYYCAREGDYDERFAYWGQGTLVTVSA
VL: DIVMTQSHKFMSTSLGDRVSITCKASQDVGSTVAWYQQKPGQSPKLLIYWASTRHTGVPDRFTGSGSGTDFTLTITNVQSEDLADYFCQQYTSFPYTFGGGTKLEIK
notes: Mouse hybridoma antibody, used as purified protein (Protein G) or as hybridoma supernatant; also called m33D2; 33D2 mAb
IC50 [7]: 0.135 µg/mL and 0.9 nM and 0.125 µg/mL and 0.833 nM
